Experimental data reported in patent US8524227B2, “Anti-IL-TIF antibodies” (ZymoGenetics, Inc., priority 2002, dated 2013).

Assays:
[1] = Mouse collagen induced arthritis (CIA) model; assay type: in vivo, mice; settings: for IL-6 levels / SAA concentrations: Day 0 serum 4 hr post 25 μg LPS
Protocol: Ten week old male DBA/1J mice (Jackson Labs) were divided into 3 groups of 13 mice/group. On day-21, animals were given a subcutaneous injection of 50-100 μl of 1 mg/ml chick Type II collagen formulated in Complete Freund's Adjuvant (prepared by Chondrex, Redmond, Wash.), and three weeks later on Day 0 they were given a 100 μl (25 μg) injection of LPS from E. coli 0111:B4, prepared as 250 μg/ml from a lyophilized aliquot (Sigma, St. Louis, Mo.). Zcytor16 was administered as an intraperitoneal injection 3 times a week for 4 weeks, from Day 0 to Day 25. The first two groups received either 100 or 10 μg of zcytor16 per animal per dose, and the third group received the vehicle control, PBS (Life Technologies, Rockville, Md.). Animals began to show symptoms of arthritis following the LPS injection, with most animals developing inflammation within 2-3 weeks. The extent of disease was evaluated in each paw by using a caliper to measure paw thickness, and by assigning a clinical score (0-3) to each paw: 0=Normal, 0.5=Toe(s) inflamed, 1=Mild paw inflammation, 2=Moderate paw inflammation, and 3=Severe paw inflammation as detailed below.
All animals were observed daily to assess the status of the disease in their paws, which was done by assigning a qualitative clinical score to each of the paws. Every day, each animal has its 4 paws scored according to its state of clinical disease. To determine the clinical score, the paw can be thought of as having 3 zones, the toes, the paw itself (manus or pes), and the wrist or ankle joint. The extent and severity of the inflammation relative to these zones was noted including observation all the toes for any joint swelling, torn nails, or redness, notation of any evidence of edema or redness in any of the paws, and notation any loss of fine anatomic demarcation of tendons or bones, and evaluation the wrist or ankle for any edema or redness, and notation if the inflammation extends proximally up the leg. A paw a score of 1, 2, or 3 was based first on the overall impression of severity, and second on how many zones were involved. The scale used for clinical scoring is shown below.
Blood was collected throughout the experiment to monitor serum levels of anti-collagen antibodies. Animals were euthanized on Day 21, and blood was collected for serum and for CBC's. From each animal, one affected paw was collected in 10% NBF for histology and one was frozen in liquid nitrogen and stored at […] for mRNA analysis. Also, ½ spleen, ½ thymus, ½ mesenteric lymph node, one liver lobe and the left kidney were collected in RNAlater for RNA analysis, and ½ spleen, ½ thymus, ½ mesenteric lymph node, the remaining liver, and the right kidney were collected in 10% NBF for histology. Serum was collected and frozen at −80° C. for immunoglobulin and cytokine assays.
Approximately 100 μL of peripheral blood was collected by retro-orbital bleed into serum separator tubes (Becton Dickinson). Serum was collected by centrifugation (2-3 min, 16,000×g, 4-6° C.) and stored at −20° C. until analyzed. To determine anti-collagen Ig antibody levels, NUNC plates were coated with 10 μg/mL chick type-II collagen (Chondrex, Redmond Wash.) and incubated overnight at 4° C. Plates were washed with ELISA C, blocked (5 minutes, room temperature) with Super Block (Pierce, Rockford, Ill.), and washed with ELISA C. Diluted serum samples (diluted in ELISA B 5-fold from 1:5000 to 1:625,000) were added to ELISA plates in triplicate and the plates were incubated overnight at 4° C. After incubation, the plates were washed with ELISA C, and peroxidase-labeled goat anti-mouse Ig Fc (Zymed, 1:2000 in ELISA B) was added. The plates were incubated (room temperature, 90 minutes), rinsed again using ELISA C, and HRP activity was developed using o-phenylenediamine dihydrochloride substrate (10 mL NovoD+1 tablet OPD+10 μL H2O2, Pierce). The reaction was stopped with 1N H2SO4. […]

IL-TIF = biological target: T1, IL-TIF (Homo sapiens, UniProt Q9GZX6); experiment: Effect of zcytor16 on IL-TIF-induced acanthosis; assay type: in vivo, mice; settings: for Average Acanthosis: day 8, score 0-3
T1 construct: made in house; host or cells: BHK cells
T1 sequence (Q9GZX6 34-179): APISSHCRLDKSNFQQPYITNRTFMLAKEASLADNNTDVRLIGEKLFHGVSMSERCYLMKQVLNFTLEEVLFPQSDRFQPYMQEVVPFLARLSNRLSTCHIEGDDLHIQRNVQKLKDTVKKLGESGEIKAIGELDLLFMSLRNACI
Protocol: Mice (female, C3H/HEJ, 8 weeks old; Jackson Labs, Bar Harbor, Me.) were divided into eight groups of eight animals each. IL-TIF was administered by constant infusion via mini-osmotic pumps, as described in example 32a. Alzet mini-osmotic pumps (model 2001; Alza corporation Palo Alto, Calif.) were loaded under sterile conditions with IL-TIF protein (A#601F, 0.22 mL) diluted in phosphate buffered saline (pH 7.0) to a concentration within the pump of 0.22 mg/mL for group 1-2 mice, 0.45 mg/mL for group 3-4 mice, 0.9 mg/mL for group 5-6 mice, or 0 mg/mL (diluent only) for group 7-8 mice. These pumps are designed to deliver their contents at a rate of 0.5 μl per hour over a period of 14 days. Using this nominal rate of infusion, dose levels were calculated to be […] and 0 μg/day for groups 7-8. For each pair of groups at a given dose level of IL-TIF, one of the groups was injected three times (days 1, 3, and 5) with 0.1 mg of human zcytor16 Fc protein (described herein) by the interperitoneal route. The other group was injected in the same fashion with vehicle (PBS).
On day 8 of the study, mice were euthanized and an approximately 1 cm square sample of skin surrounding the pump area was collected from each mouse. The skin was fixed in 10% neutral buffered formalin. Formalin fixed samples of skin were embedded in paraffin, routinely processed, sectioned at 5 um and stained with hematoxylin and eosin. The tissues were microscopically examined in blinded fashion by an ACVP board certified veterinary pathologist. This study was scored in a different manner than the previous example. The number of layers in the epidermis, from stratum basalis to stratum granulosum, was determined Based on the results, the sections were scored as follows: O-normal (2-3 layers), 1-mild thickening (3-4 layers), 2-moderate thickening (4-6 layers) and 3-severe thickening (>6 layers).

B1: zcytor16-Fc4: soluble receptor for IL-TIF, zcytor16 fused to Fc4; IL-TIF antagonist (protein)
chain: TQSTHESLKPQRVQFQSRNFHNILQWQPGRALTGNSSVYFVQYKIYGQRQWKNKEDCWGTQELSCDLTSETSDIQEPYYGRVRAASAGSYSEWSMTPRFTPWWETKIDPPVMNITQVNGSLLVILHAPNLPYRYQKEKNVSIEDYYELLYRVFIINNSLEKEQKVYEGAHRAVEIEALTPHSSYCVVAEIYQPMLDRRSQRSEERCVEIPEPRSSDKTHTCPPCPAPEAEGAPSVFLFPPKPKDTLMISRTPEVTCVVVDVSHEDPEVKFNWYVDGVEVHNAKTKPREEQYNSTYRVVSVLTVLHQDWLNGKEYKCKVSNKALPSSIEKTISKAKGQPREPQVYTLPPSRDELTKNQVSLTCLVKGFYPSDIAVEWESNGQPENNYKTTPPVLDSDGSFFLYSKLTVDKSRWQQGNVFSCSVMHEALHNHYTQKSLSLSPGK
- disease score (paw score, incident of inflammation or disease) ([1]; 10 μg three times a week for 4 weeks): significantly reduced the disease score
- IL-6 levels ([1]; 10 μg zcytor16): 10,865+/−1478 pg/ml
- SAA concentrations ([1]; 10 μg zcytor16): 348 ± 37 µg/mL
- levels of anti-collagen antibodies ([1]; 100 μg or 10 μg groups vs PBS, serum ELISA): no statistically significant effects
- IL-6 levels ([1]; 100 μg zcytor16): 9651 ± 1563 pg/mL
- SAA concentrations ([1]; 100 μg zcytor16): 381 ± 40 µg/mL
- paw scores and measurements ([1]; 100 or 10 μg IP 3 times a week for 4 weeks vs PBS): No statistically significant differences
- changes in body weight, CBC parameters, or anti-collagen antibody levels ([1]; 100 or 10 μg IP vs PBS): no significant differences
- effect on epidermal thickening (IL-TIF; 100 μg zcytor16 (3 injections), mice treated with 5 μg IL-TIF/day): decreased the amount of epidermal thickening
- Average Acanthosis (IL-TIF; pump 2.5 μg IL-TIF/day + 100 μg zcytor16 (3 injections)): 0.8
- Average Acanthosis (IL-TIF; pump 5 μg IL-TIF/day + 100 μg zcytor16 (3 injections)): 0.6
- Average Acanthosis (IL-TIF; pump 10 μg IL-TIF/day + 100 μg zcytor16 (3 injections)): 1.9
- Average Acanthosis (IL-TIF; pump Vehicle + 100 μg zcytor16 (3 injections)): 0.0
